Source: the supplement of paper PMC12764529
± gives the half width of the 95% confidence interval.

How the values were obtained:
[1] = folding stability dG unfold from trypsin proteolysis; higher = more stable
Method in brief: (§1)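 K50 was inferred by Bayesian fitting of sequencing counts obtained after protease digestion of designed mini-proteins. Unfolding free energy was derived by comparison with a sequence-predicted unfolded-state K50 and a shared folded-state K50, for each protease or both combined. The mini-proteins were under 80 residues, had no cysteine, were carried in a PA-tagged cDNA display construct, and were kept only if AlphaFold2 dimer inter-PAE exceeded 15.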

[2] = folding stability dG unfold from chymotrypsin proteolysis; higher = more stable
Method in brief: as §1

[3] = folding stability dG unfold (combined trypsin and chymotrypsin); higher = more stable
Method in brief: as §1

Row | Sequence | folding stability dG unfold [1] [kcal/mol] | folding stability dG unfold [2] [kcal/mol] | folding stability dG unfold [3] [kcal/mol]
1 | SAGGRAEEFATFLAELLRALLPPGEKVRATAVVTPEGVVVRVEHPLGFVAEALVKGDKLVRLELRPVSAGGS [r8_287_TrMRF] | 3.17 ± 0.13 | 3.82 ± 0.09 | 3.6 ± 0.11
2 | SAGGRAVLLATFTTPDGSLVLVYEDPATGRVLVVSFDPSTGRVSVLRLRRVPNTGDLFIEDRATFPLSSAGG [r19_249_TrMRF] | 3.51 ± 0.059 | 4.36 ± 0.12 | 3.97 ± 0.12
3 | SAGGRIEVRPLEGSGAVLVRILDPELRKKLEEKFPDVTEILFPVEGAEDIPLEELRDRAIKEIEELIDSAGG [r19_298_TrMRF] | 1.4 ± 0.051 | 0.187 ± 0.056 | 0.956 ± 0.059
4 | SAGGRKITINWNPNSGEIKVKIIWPDGEKEELPIPVPEGHDSPRQFADELKDNAQERFGEPVKIEITSAGGS [r8_166_TrROS] | -0.223 ± 0.15 | -0.793 ± 0.21 | -0.492 ± 0.4
5 | SAGGRLVRIKVDIYSPGDGEPHEFEFLLHVDANGSVEIYFPNGKRIRIPPNMKVKIKDIEVLDPDQISAGGS [r16_223_TrROS] | 2.56 ± 0.089 | 3.45 ± 0.11 | 3.17 ± 0.14
6 | SAGGRVRLEEVEILPPLEDPEDNPDRPLLLLRVRARVEYDTPEGPREEERELVLVVSPERLEEALEALSAGG [r13_149_TrMRF] | 0.794 ± 0.075 | 1.62 ± 0.13 | 1.37 ± 0.16
7 | SAGGRYYFVRIEIYNPNNGRPFDIMIPFPGMPAEQVKEQVKEIADELAKQHGMDVKVKVEIQPLPPDSAGGS [r8_185_TrROS] | 1.73 ± 0.092 | 2.06 ± 0.07 | 1.95 ± 0.17
8 | SAGGSAAMVPPEELAERLAEELAAKEGREVTEVTVEVLDPERGVVRVTVTFRSPEGLSTRTVVVDLSAGGSA [r15_32_JUSTAS] | 3.24 ± 0.057 | 3.191 ± 0.026 | 3.21 ± 0.049
9 | SAGGSAAPLPPDETEVRVEYRYDPEKGVLVITTTTTRFTPEGGATPLETRPVVVEVTEEEKKKVELSAGGSA [r15_191_JUSTAS] | 1.25 ± 0.046 | 1.04 ± 0.095 | 1.17 ± 0.1
10 | SAGGSAAPVSRVVELEFVLPPELVAEAVDALRKLPGVKASFELAEVLPDGYVRVRVTIEVPDDVDLSAGGSA [r15_441_TrMRF] | 3.46 ± 0.11 | 3.95 ± 0.073 | 3.8 ± 0.073
11 | SAGGSAASVVEKTLSPDGTLFVTIKVDPEKKSVPFSITTPDGTPVTVTLPPNTTKTVRVPLGEAALSAGGSA [r15_336_JUSTAS] | -0.678 ± 0.28 | -0.553 ± 0.27 | -0.39 ± 0.15
12 | SAGGSAAVDLSERPPALPVPLKVEVIPIPETGSSLVLVTHPDGFVLLARVNPEGEVELLSAFSLDDSAGGSA [r15_790_TrMRF] | 1.56 ± 0.066 | 2.86 ± 0.074 | 2.51 ± 0.14
13 | SAGGSAAVTITSVPPDGTIRATATNPTNGETVTITFSPETSPEEAVAAIQKELGGPVPVTAVTPAGSAGGSA [r15_544_JUSTAS] | 0.975 ± 0.033 | 1.57 ± 0.062 | 1.42 ± 0.1
14 | SAGGSADDVKIKVEYERNPENGYGQITVEVEDPDGKDLKVEIMFPNMTPEEMEKQAKDIAKEIAKKSAGGSA [r15_526_TrROS] | -0.526 ± 0.21 | 1.26 ± 0.19 | 0.719 ± 0.23
15 | SAGGSADELVVRLRVRDPRTERPLEIDLPVPASLTPEEAIARAERLAAAFRSLGLETEVEVEPVPRSAGGSA [r15_268_TrMRF] | 1.45 ± 0.035 | 1.88 ± 0.042 | 1.73 ± 0.046
16 | SAGGSADENKKPMYFIMVKIEIKFGGKDHKIEIMIPLDNVEKLAKNIAEELGMEIKDVTVSLYPIDSAGGSA [r15_535_TrROS] | 2.79 ± 0.13 | 4.18 ± 0.12 | 3.77 ± 0.15
17 | SAGGSADNIEFKFPGIEEVTVWPDKIMFKLPNGYYYVITINNIDEIEIIEVIPPVPPPPPEDPDDKSAGGSA [r15_393_TrROS] | 2.38 ± 0.39 | 2.29 ± 0.11 | 2.4 ± 0.34
18 | SAGGSADSVTFTDPNVEEQIVIPPYVIFKYPDGSVRIIAFDDGDKAEILEEIPFVPPLEPLHPDLESAGGSA [r15_393_TrMRF] | 0.84 ± 0.03 | 1.11 ± 0.076 | 1.06 ± 0.17
